In the supplement of paper PMC10567573:
± gives the standard deviation.

Assay: protein stability index of a GFP-peptide fusion (GPS, HEK-293T) (PSI 1-6); higher = more stable
Details: c terminus: a fixed tail appended
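Note: 24-mer peptide tiles fused after GFP, lentivirally expressed, FACS-sorted into six equal bins by GFP/DsRed ratio, decoded by Illumina sequencing, PSI is the read-weighted mean bin number.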

Sequence	protein stability index (treatment: DMSO)	protein stability index (treatment: MLN4924 1 uM, 8 h)
CYRSQDYGGRSVAPQNSFSAKLAP [KCNK9]	3.04 ± 0.092	3.19 ± 0.36
DAAVVRPGFLSTAEEETLSRELEP [ALKBH7]	5.53 ± 0.063	5.42 ± 0.17
DAAYRKALDLAREFLPQGPVAMRV [AUH]	2.25 ± 0.64	2.19 ± 0.33
DAGGIPRTAQSEETRVWHRRDGKW [CAMK2A]	4.92 ± 0.13	4.86 ± 0.1
DCLLCFPETLPESSLFSVEANSSN [C8orf76]	3.58 ± 0.29	3.58 ± 0.6
DDLTVVDAASLRRQIIKLNRRLQL [MFF]	2.49 ± 0.27	2.9 ± 0.65
DDRNTACHHGLVADSLQASMEKDA [DLC1]	5.15 ± 0.13	5.16 ± 0.16
DDYPSRGYSDRDGYGRDRDYSDHP [RBMX]	4.85 ± 0.3	4.87 ± 0.22
DEKYSIEPSWECKFDHIEVRDGPF [NETO1]	3.78 ± 0.35	3.9 ± 0.17
DETHPYTVTSVSCCHGNTLLAVRS [NEK8]	2.47 ± 0.12	2.67 ± 0.076
DEVQIGPETVMTTLYTAKKYAVPA [BTBD1]	3.67 ± 0.32	3.55 ± 0.41
DFLIHPPERSDLTLYLIVALATVS [PCDHGC5]	2.75 ± 0.41	2.44 ± 0.25
DGASVNENHEIYMKDSMSAAEVGT [EPB41L3]	5.31 ± 0.28	5.34 ± 0.32
DGENVFTGQSKIYSYMSPNKCSGM [KMT5A]	3.3 ± 0.29	3.3 ± 0.14
DGKGKINKEYIKRLLMSQADKMTA [MYL5]	2.97 ± 0.25	3.13 ± 0.33
DGKLSFEEFKAYFADGVLSGEELH [NECAB1]	4.23 ± 0.28	4.14 ± 0.37
DGTGASQEPPTTDSQEAQSPGHSS [TOR1AIP2]	5.56 ± 0.26	5.54 ± 0.24
DHEDNDKMNDSEGMDPERLKAFNM [NOL4L]	5.46 ± 0.12	5.34 ± 0.34

Sequence	protein stability index (treatment: DMSO)	protein stability index (treatment: MLN4924 1 uM, 8 h)
DIVLMAQALEKIFLQKVAQMPQEE [BRD3]	2.36 ± 1.6	3 ± 1
DIVWGKIHGFPWWPARVLDISLGQ [PWWP2B]	2.7 ± 0.86	2.38 ± 0.42
DKLRALKSQRQPRTSPSCAFRSDD [CDC14A]	4.14 ± 0.23	4.15 ± 0.11
DKNVQVVELPIVDSLHPRPPYLPL [FUT8]	3.2 ± 0.29	3.35 ± 0.28
DLLTFVQNLCKGLSQPTTNLVAGC [NEUROD6]	3 ± 1	2.47 ± 0.33
DLYALKSVKIPVRNHGILMETHKE [LYSMD4]	3.02 ± 0.14	3.25 ± 0.12
DMCMKVPDDPEHLAARRQWRDECL [CRYL1]	4.47 ± 0.22	4.56 ± 0.2
DMLLEKLPQVAEEISGPLTSANKI [FLOT1]	4.15 ± 0.19	4.43 ± 0.16
DMSIGGNLSKTQNMERFGEDNLED [CDC14A]	5.27 ± 0.14	5.34 ± 0.21
DMVEFLLEQCSASIEVGGSVNFDG [FEM1C]	2.17 ± 0.76	2.4 ± 0.24
DPGADSEKSTVVEGGEVRFNGKGK [DLX1]	5.51 ± 0.22	5.58 ± 0.18
DPIIDSWEVVTSMGTQRCDAGVCV [KLHL12]	3 ± 0.21	2.95 ± 0.39
DPQILQMLKEEHQIILENQKNFGL [RAD54B]	3.25 ± 0.3	3.812 ± 0.008
DQNRDGFIDKEDLKDTYASLGKTN [MYL5]	5.12 ± 0.092	5.2 ± 0.14
DSAQFTKALAIILHLLYLLEKVEC [FEM1A]	2.22 ± 0.33	2.11 ± 0.34
DSEQVPQALRRLRPRTRKVKSVSP [NCF4]	5.21 ± 0.25	5.11 ± 0.24
DSKSLKTHQTQPGIRRARDKALSG [NET1]	4.63 ± 0.16	4.7 ± 0.18
DSPSKEEVFRFVQSCARAVVPSYI [CPOX]	2.48 ± 0.55	2.5 ± 0.32
